For the assay, the target named is T1, Full-length human GPR1, wild type, N-terminal FLAG tag (pcDNA3.1(+)) (human) (UniProt P46091).
T1 sequence: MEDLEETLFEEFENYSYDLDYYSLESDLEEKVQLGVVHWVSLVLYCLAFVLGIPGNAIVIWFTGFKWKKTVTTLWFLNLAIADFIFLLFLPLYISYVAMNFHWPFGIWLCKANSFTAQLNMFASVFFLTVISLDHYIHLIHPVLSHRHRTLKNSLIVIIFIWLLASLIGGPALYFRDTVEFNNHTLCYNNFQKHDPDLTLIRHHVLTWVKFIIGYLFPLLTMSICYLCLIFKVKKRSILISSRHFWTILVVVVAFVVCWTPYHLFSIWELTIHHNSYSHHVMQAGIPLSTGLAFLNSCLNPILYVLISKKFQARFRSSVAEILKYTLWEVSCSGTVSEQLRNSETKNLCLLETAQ

B1: Full-length chemerin (abcam, ab256228) (ligand)
chain: ELTEAQRRGLQVALEEFHKHPPVQWAFQETSVESAVDTPFPAGIFVRLEFKLQQTSCRKRDWKKPECKVRPNGRKRKCLACIKLGSEDKVLGRLVHCPIETQVLREAEEHQETQCLRVQRAGEDPHSFYFPGQFAFS
Regarding B1, the EC50 of cAMP inhibition (HeLa) and NanoBiT G protein dissociation (HEK293T) came out at 100 pM.
